# Assay: Physical stability and re-dispersion of chilled-acetone precipitated polymer conjugate particles
# Type: physicochemical
# Protocol: A 600 mL beaker of 300 mL of acetone with magnetic stir bar was pre-chilled to −78° C. in a dry ice/acetone bath. A solution of polymer conjugate HG6 (2 grams), obtained without further preparation from Example 3, was added dropwise over a 4 minute period into the beaker with chilled acetone with stirring and maintained in the dry ice/acetone bath. Individual free flowing polymer particles (resembling chards or flakes) were formed (FIG. 3) and remained in suspension under stirring conditions. After 25 minutes, the chilled acetone was decanted and replaced with fresh pre-chilled acetone (300 mL at −78° C.) and stirred for an additional 30 minutes to afford a suspension of polymer particles in chilled acetone.
# From the polymer particles/chilled acetone suspension further steps were conducted. First, a portion of polymer particles (still in acetone) was removed from the suspension and allowed to dry at room temperature. […] A second portion of polymer particles (still in acetone) was removed from the suspension and frozen in liquid nitrogen (N2) and lyophilized for 24 hours.
substance,measurement,setting,value
Poly(CDDCys-PA-PEG)-Gly-CPT [HG6],Re-dispersion of lyophilized polymer particles in water,"frozen in liquid N2, lyophilized 24 hours, water, even after 24 hours and sonication",did not re-disperse in water
same,Physical stability of lyophilized polymer particles in ambient environment,lyophilized particles exposed to the ambient environment,melted into yellow oil
same,Re-dispersion of lyophilized polymer particles with acetone,"lyophilized particles, with addition of acetone",re-dispersion was successful
same,Physical stability of precipitated polymer particles allowed to dry,"portion removed from acetone suspension, dried at room temperature",melted into yellow oil
same,Physical stability of polymer particle suspension in acetone,"still in acetone, warmed to room temperature for 72 hours",remained a stable free flowing suspension

# Reference: patent US11464871B2, “Methods and systems for polymer precipitation and generation of particles” (priority 2012, dated 2022)
